Patent US20140289906A1, “Compositions Having Dicamba Decarboxylase Activity and Methods of Use” (priority 2013, published 2014)
Numbering of substitutions follows the chain as printed.

B1: 29 (protein, listed as Pseudovibrio sp.)
chain: MAGRRDFLRKSVAAGVGLTAAAQLSAGGAQATVPDTSNIPLITLEEHFTTPELQSKNTSGDKRLFSGGGSRPELLDVGAGRIADMDEAGIDIQVLSTVTPGASKITGAEGVEFTRKFNTWIAEEVIAAYPNRFRAFATLPLSSPEAAADELERSVREYGFVGTMTYGPIDGKFLDHADYAPLLARAEALGVPIYIHPNWPSPTAMQAYYDGLGDDLTSRILSGPGYGWHQEIAVQCLRLIVGGVFDRFPNLQIVVGHMGEGLPFYYWRVGEDLDRIAQKRLQKPVQQYFHDNLWITTSAFFRDELLNLALATMGEDRVMFSVDYPMASAKVGADWLRAADIPLATKEKIGSKNAMKLLGIDKI
B2: 25 (protein, listed as Acidovorax avenae)
chain: MAQGKIGLEEHFAIPETLQDSAGFVPGDYWKELSLRLLDIHERRLREMDENGMEMMILSLNAPAVQAIPDTKKAVEIAVRANDFLAEQVARRPDRFQAFAALPMQDPDLATRELERCMQDLGFRGALVNGFSQVGTPENVVYYDAPQYGDFWAAVERLDAPFYLHPRNPIASWAQIYQGHPWLMGPTWAFAQETAVHALRLMASGLFDRHPGLRIILGHLGEGLPYNMWRVDHRNAWVDMPKGYPAKRKLCDYFHENFYLTTSGNFRTQTLIDALLEVGADRILFSTDWPFENVDHAAHWFDDAAISEADRLKIGRTNALSLFKLPQG
B3: 24 (protein)
chain: MALGKVVLEEAYERPNMKEKSNHEAGLYIAPNDRPRYMRQINDINQERLKLADAHGVGYTIISLTVPGIQGIFDKTEAERVATETNNWAAEQIKNHRDRLGAFACLSMHDPAQAANELRRCVQELGFHGALLCSFQHAGPDGETYLFYDQPKYDVFWKALTELDVPLYIHPAAPTGSILERLYAQRPALIGPPLSFANDVSLHTLGIISNGVFDRFPNLKIIIGHLGEHIPFDFWRIDHWFRDVKKPIADEEGRVMAQKSLYHYFKHNIWLTTSGHFSTPTLKYVVNEIGVDRVLFSVDYPYETTESGCNWWDHDKDAIVEAVGGVDNYYAIGRENAKKLLRLDKFHDSDAR
modifications: Aspergillus niger
B4: 27 (protein, listed as Aspergillus oryzae)
chain: MALGKIALEEAFALPRFEEKTRWWASLFSTDAETHVKEITDINKIRIEHADKHGVGYQILSYTAPGVQDIWDPVEAQALAVEINDYIAEQVRVNPDRFGAFATLSMHNPKEAADELRRCVEKYGFKGALVNDTQRAGPDGDDMIFYDNADWDIFWQTCTELDVPFYMHPRNPTGTIYEKLWADRKWLVGPPLSFAHGVSLHVLGMVTNGVFDRHPKLQIIMGHLGEHVPFDMWRINHWFEDRKKLLGLAETCKKTIRDYFAENIWITTSGHFSTTTLNFCMAEVGSDRILFSIDYPFETFSDACEWFDNAELNGTDRLKIGRENAKKLFKLDSYKDSSA
B5: 124 (protein)
chain: MAQGKVALEEHFAIPETLQDSAGFVPGDYWKELQHRLLDIQDTRLKLMDAHGIETMILSLAAPAVQAIPDRRKAIEIARRANDFLAEECAKRPDRFLAFAALPLQDPDAATEELQRCVNDLGFVGALVNGFSQEGDGQTPLYYDLPQYRPFWGEVEKLDVPFYLHPRNPLPQDSRIYDGHPWLLGPTWAFAQETAVHALRLMASGLFDEHPQLNIILGHMGEGLPYMMWRIDHRVAWGKLPPAYPAKRRFMDYFNENFHITTSGNFRTQTLIDAILEIGADRILFSTDWPFENIDHASDWFNATSIAEADRVKIGRTNARRLFKLDGD
modifications: Dicamba decarboxylase variant clone S03969214
B6: 125 (protein)
chain: B5 chain with Q212R, N214Q, W229Y, V235I, G238V, K239H, L240E, A243R, D328A
modifications: Dicamba decarboxylase variant clone S03970523

Test: 14C assay: 14CO2 capture from [14C]-carboxyl-labeled dicamba with IPTG-induced recombinant E. coli cells
Settings: for Dicamba Decarboxylase Activity: IPTG-induced recombinant E. coli cells, 14CO2 from [14C]-carboxyl-labeled dicamba; for Enzymatic Detection level: dicamba decarboxylation activity

Molecule	Dicamba Decarboxylase Activity	Enzymatic Detection level
B1	No	No
B2	Low	Low
B3	Low	Low
B4	No	No
B5		High
B6		High
